Data on 32 molecules can be found in US20240083958A1, “G PROTEIN PEPTIDOMIMETICS” (VRIJE UNIVERSITEIT BRUSSEL, priority 2020, published 2024).

Bridge positions count the residues as written; N and C are the ends. Square brackets hold non-standard residues; d marks the D form. Primed or numbered codes have the meaning given here. Peptide text beside a SMILES is read from it. Azk = residue with azidated side chain, clicked to Pra; Pra′ = residue with alkynyl side chain, clicked to Azk; Lys(N3) = [N-]=[N+]=NCCCC[C@H](N)C(=O)O; 1Nal = N[C@@H](Cc1cccc2ccccc12)C(=O)O; 2Nal = N[C@@H](Cc1ccc2ccccc2c1)C(=O)O; Aad = N[C@@H](CCCC(=O)O)C(=O)O; Cha = N[C@@H](CC1CCCCC1)C(=O)O; Pra = C#CC[C@H](N)C(=O)O

Assay [1] concerns the target T1, human β2AR (Homo sapiens, UniProt P07550, N187E).
T1 construct: made in house; host or cells: Sf9 insect cells (Bac-to-Bac baculovirus); membrane extracts
Nature of the assay: Radioligand binding assay (RLA) with human β2AR, 3H-dihydroalprenolol (DHA) as radioligand, isoproterenol (agonist) as cold competitor, in presence and absence of the peptidomimetic. How it is done:
β2AR365N constructs were expressed in Sf9 insect cells, using the Bac-to-Bac® Baculovirus Expression System. The membrane extracts were prepared from cells that expressed β2AR. Subsequently, the cell pellet was resuspended in a buffer (1 ml buffer/2×1E7 cells) containing 75 mM Tris pH 7.4, 12.5 mM MgCl2, 1 mM EDTA, Leupeptin and PMSF as protease inhibitors. Afterwards the cells were vortexed and homogenized in ice using a small volume Ultraturrax (6×10 sec). The cells were then centrifuged for 15 min at 16000 rcf, in a pre-cooled centrifuge (4° C.) and resuspended in the previous buffer containing 10% sucrose. Finally, the membranes were again homogenized in ice with the small volume Ultraturrax (3×10 sec). The protein concentration in the membrane fragments was determined using a Pierce BCA Protein Assay Kit and the protein concentration was extrapolated from the Bovine Serum Albumine standard curve.
To perform the radioligand competition binding assays, 96-well plates were used. For the assays on β2AR, the membrane extracts as well as the peptides were prepared in a binding buffer (75 mM Tris pH 7.4, 12.5 mM MgCl2, 1 mM EDTA, 0.2% BSA). The ligand (isoproterenol) and radioligand ([^3H]-dihydroalprenolol) were dissolved in ligand buffer (75 mM Tris pH 7.4, 12.5 mM MgCl2, 1 mM EDTA, 0.2% BSA and 0.1% ascorbic acid), at 1 mM and 2 nM, respectively. A ten-fold dilution series of the ligand was prepared to obtain a dose response curve. For each reaction 100 μl membrane extract, 50 μl ligand, 50 μl peptide or binding buffer containing 1% DMSO and 50 μl of radioligand was added to the V-bottom storage plate, with a total volume of 250 μl per well. Afterwards, the plates were incubated at room temperature for 2 h on a plate shaker (150 rpm). The samples were harvested into filter plates and washed with ice cold washing buffer (75 mM Tris pH 7,4) using the 96-well harvester. The plates were dried for 1 h at 50° C. and then sealed to allow the addition of 30 μl scintillation liquid to each well. Finally, the top of each plate was sealed and the plates were placed in a Wallac MICROBETA® Trilux scintillation counter and incubated for 30 min in the dark.
After the Microbeta scintillation counter, the experimental data was further analyzed using Graphpad Prism 6.0. After normalization of the raw data, a nonlinear regression was used to fit the data in a one-site binding model, with the total binding set as 100% and the non-specific binding between 0 and 5%. The IC50 values, obtained from the competition curves, were used to determine the shift for each peptide, which is the ratio of IC50 of the agonist test compound on the basal conformation (e.g. IC50 β2AR with no peptidomimetic) versus the active conformation (e.g. IC50 β2AR+peptidomimetic) of the receptor. For certain peptide analogues, a biphasic binding curve was observed and therefore fitted by a two-site model (nonlinear regression), resulting in two IC50 values (IC50Hi and IC50Lo) and a FractionHi, the fraction of receptors in the active state.
Synthesised peptidomimetics were evaluated using a radioligand binding assay (RLA) with a human β2AR, using ^3H-dihydroalprenolol (DHA) as the radioligand and increasing concentrations of isoproterenol (agonist) as cold competitor. In particular, the pharmacological stabilization of the receptor in the active conformation was evaluated by performing the radioligand displacement assay (RLA) in the presence and absence of the peptidomimetics. This validated assay quantifies the pharmacological stabilization of the receptor in the active conformation by comparing the affinities of an agonist for the basal versus the active GPCR conformer (Pardon et al. (2018) Angewandte Chemie International Edition 57, 5292-5295). During the assay, the binding affinity of an orthosteric agonist for the receptor, in particular isoproterenol for human β2AR, in presence and absence of the allosteric peptidomimetic was determined. […]

Assay [2] has as its target human β2AR (human, UniProt P07550 2-365). Briefly: cell-based or functional assay.

Consider `CCC(C)[C@@H]1NC(=O)[C@@H](NC(=O)[C@H](CC(=O)O)NC(=O)[C@H](CCCNC(=N)N)NC(=O)[C@H](CS)NC(=O)[C@H](CC(=O)O)NC(=O)[C@H](CC(N)=O)NC(=O)[C@H](Cc2ccccc2)NC(C)=O)CCC(=O)NCCCC[C@@H](C(=O)N[C@@H](Cc2c[nH]cn2)C(=O)N[C@@H](CC(C)C)C(=O)N[C@@H](CCCNC(=N)N)C(=O)N[C@@H](CCC(N)=O)C(=O)N[C@@H](Cc2ccc(O)cc2)C(=O)N[C@@H](CCC(=O)O)C(=O)N[C@@H](CC(C)C)C(=O)N[C@@H](CC(C)C)C(=O)O)NC(=O)[C@H](CCCNC(=N)N)NC(=O)[C@H](CCC(N)=O)NC1=O` (stereo partly drawn) [compound 5, Ac-FNDCRD[EIQRK]HLRQYELL-OH] (HELM PEPTIDE1{[ac].F.N.D.C.R.D.E.[CCC(C)[C@H](N[*:1])C(=O)[*:2]].Q.R.K.H.L.R.Q.Y.E.L.L}$PEPTIDE1,PEPTIDE1,8:R3-12:R3$$$V2.0), for which the Shift on human β2AR [1] (Table 3, ratio IC50 β2AR alone / IC50 β2AR + peptidomimetic) stood at 4; on human β2AR [1] (Table 18a overview, averaged values of IC50 shift), 4.
For “Ac-FN[PraCRDAzk]IQRMHLRQYELL-OH (Ac-FN[Pra′]CRD[Azk]IQRMHLRQYELL-OH; triazole 3-7) [compound 12]”, the Shift in the assay with human β2AR [1] (Table 8, ratio IC50 β2AR alone / IC50 β2AR + modulator) is on record as 37.

B1: compound 35 (peptide)
peptide: Ac-FN[Azk]CRD[Pra′]IQRMHLRQYELL-OH
modifications: triazole 3-7
Turning to B1, the “Shift (averaged)” value in the assay with human β2AR [2] worked out at 5.

B2: compound 48 (peptide)
peptide: Ac-KFN[Pra′]CRD[Azk]IQRMHLRQYEIL-OH
modifications: triazole 4-8
Turning to B2, in the assay with human β2AR [2], the “Shift (averaged)” value was 8.

B3: compound 37 (peptide)
peptide: Ac-FN[Pra′]CRD[Azk]IQRMHLRQY[Aad]LL-OH
modifications: triazole 3-7
Turning to B3, the “Shift (averaged)” value with human β2AR [2] turned out to be 35.

B4: compound 57 (peptide)
peptide: Ac-KKKFN[Pra]CRD[Lys(N3)]IQRMHLRQ[1Nal]ELL-OH
modifications: triazole 6-10
In the case of B4, in the assay with human β2AR [2], the “Shift (averaged)” value stood at 49.

B5: compound 65 (peptide)
peptide: Ac-KKKRDIIQR[Lys(N3)]HLR[Pra′]YE[Cha]L-OH
modifications: triazole 10-14
As to B5, the “Shift (averaged)” value with human β2AR [2] came to 63.

B6: compound 81 (peptide)
peptide: Ac-NARRIFNDARDIIQRMHLRQYELL-OH
Regarding B6, the “Shift (averaged)” value with human β2AR [2] was found to be 8.

B7: compound 75 (peptide)
peptide: Ac-FNDARDIIQRMHLRQYELL-OH
For the molecule B7, the “Shift (averaged)” value with human β2AR [2] is 5.

B8: compound 34 (peptide)
peptide: Ac-FN[Pra′]CRD[Azk]IQRMHLRQYELI-OH
modifications: triazole 3-7
Consider B8, for which the “Shift (averaged)” value with human β2AR [2] came out at 29.

B9: compound 39 (peptide)
peptide: Ac-FN[Pra′]CRD[Azk]IQRMHLRQYDLL-OH
modifications: triazole 3-7
Consider B9, for which, in the assay with human β2AR [2], the “Shift (averaged)” value came to 52.

B10: compound 55 (peptide)
peptide: Ac-KKKFN[Pra′]CRD[Azk]IQRMHLRQYDLL-OH
modifications: triazole 6-10
As to B10, the “Shift (averaged)” value with human β2AR [2] was found to be 72.

B11: compound 30 (peptide)
peptide: Ac-FN[Pra′]CRD[Azk]IQRMHLRQWELL-OH
modifications: triazole 3-7
For B11, the “Shift (averaged)” value in the assay with human β2AR [2] came out at 9.

B12: compound 47 (peptide)
peptide: Ac-KKKFN[Pra′]CRD[Azk]IQRMHLRQYELI-OH
modifications: triazole 6-10
Turning to B12, the “Shift (averaged)” value in the assay with human β2AR [2] came out at 64.

B13: compound 28 (peptide)
peptide: Ac-FN[Pra′]CRD[Azk]IQRMHLRQYQLL-OH
modifications: triazole 3-7
As for B13, the “Shift (averaged)” value with human β2AR [2] is 12.

B14: compound 46 (peptide)
peptide: Ac-KFN[Pra′]CRD[Azk]IQRMHLRQYELI-OH
modifications: triazole 4-8
With B14, the “Shift (averaged)” value in the assay with human β2AR [2] was 51.

B15: compound 83 (peptide)
peptide: Ac-NARRIFNDARDIIQRMHLRQYEWL-OH
On to B15, for which the “Shift (averaged)” value with human β2AR [2] stood at 9.

B16: compound 27 (peptide)
peptide: Ac-FN[Pra′]CRD[Azk]IQRMHLRQYQLL-OH
As for B16, in the assay with human β2AR [2], the “Shift (averaged)” value came out at 4.

B17: compound 70 (peptide)
peptide: Ac-FNDCRDIIQRMHLRQYEYL-OH
For B17, the “Shift (averaged)” value with human β2AR [2] stood at 2.

B18: compound 29 (peptide)
peptide: Ac-FN[Pra′]CRD[Azk]IQRMHLRQWELL-OH
Consider B18, for which the “Shift (averaged)” value in the assay with human β2AR [2] turned out to be 4.

B19: compound 54 (peptide)
peptide: Ac-KFN[Pra′]CRD[Azk]IQRMHLRQYDLL-OH
modifications: triazole 4-8
With B19, the “Shift (averaged)” value in the assay with human β2AR [2] was determined as 91.

B20: compound 71 (peptide)
peptide: Ac-FNDCRDIIQRMHLRQYEHL-OH
As for B20, the “Shift (averaged)” value in the assay with human β2AR [2] amounted to 1.

B21: compound 43 (peptide)
peptide: Ac-FN[Pra′]CRD[Azk]IQRMHLRQ[1Nal]ELL-OH
modifications: triazole 3-7
Regarding B21, in the assay with human β2AR [2], the “Shift (averaged)” value is 54.

B22: compound 64 (peptide)
peptide: Ac-RDIIQR[Lys(N3)]HLR[Pra′]YE[Cha]L-OH
modifications: triazole 7-11
Turning to B22, the “Shift (averaged)” value in the assay with human β2AR [2] came to 81.

B23: compound 53 (peptide)
peptide: Ac-KKKFN[Pra′]CRD[Azk]IQRMHLRQY[Aad]LL-OH
modifications: triazole 6-10
For the molecule B23, the “Shift (averaged)” value with human β2AR [2] is 38.

B24: compound 56 (peptide)
peptide: Ac-KKKFN[Pra′]CRD[Azk]IQRMHLRQWELL-OH
modifications: triazole 6-10
For the molecule B24, the “Shift (averaged)” value in the assay with human β2AR [2] stood at 53.

B25: compound 38 (peptide)
peptide: Ac-FN[Pra′]CRN[Azk]IQRMHLRQYELL-OH
modifications: triazole 3-7
With B25, the “Shift (averaged)” value in the assay with human β2AR [2] is 7.

B26: compound 36 (peptide)
peptide: Ac-FN[Pra′]CRD[Azk]IQRMHLRQYELL-NH2
modifications: triazole 3-7
On to B26, for which the “Shift (averaged)” value with human β2AR [2] came out at 1.

B27: compound 58 (peptide)
peptide: Ac-KKKFN[Pra′]CRD[Azk]IQRMHLRQ[2Nal]ELL-OH
modifications: triazole 6-10
Consider B27, for which the “Shift (averaged)” value in the assay with human β2AR [2] is 39.

B28: compound 32 (peptide)
peptide: Ac-FN[Pra′]CRD[Azk]IQRMHLRQYEIL-OH
modifications: triazole 3-7
For the molecule B28, the “Shift (averaged)” value in the assay with human β2AR [2] turned out to be 2.

B29: compound 52 (peptide)
peptide: Ac-KFN[Pra′]CRD[Azk]IQRMHLRQY[Aad]LL-OH
modifications: triazole 4-8
On to B29, for which the “Shift (averaged)” value in the assay with human β2AR [2] came out at 53.

B30: compound 49 (peptide)
peptide: Ac-KKKFN[Pra′]CRD[Azk]IQRMHLRQYEIL-OH
modifications: triazole 6-10
With B30, in the assay with human β2AR [2], the “Shift (averaged)” value stood at 11.
